Data reported in patent US20190016816A1 (APTEVO RESEARCH AND DEVELOPMENT, published 2019).

Tests used:
cynomolgus 5T4 on cells = biological target: T1, cynomolgus 5T4 on cells (cynomolgus macaque, UniProt Q4R8Y9 35-420); test: flow cytometry, CHO-K1 cells expressing cynomolgus 5T4, labelled anti-human IgG secondary, MFI (median)
T1 construct: whole, on cells; also called CHO-K1/cynomolgus 5T4 transfectants
T1 sequence (looked up): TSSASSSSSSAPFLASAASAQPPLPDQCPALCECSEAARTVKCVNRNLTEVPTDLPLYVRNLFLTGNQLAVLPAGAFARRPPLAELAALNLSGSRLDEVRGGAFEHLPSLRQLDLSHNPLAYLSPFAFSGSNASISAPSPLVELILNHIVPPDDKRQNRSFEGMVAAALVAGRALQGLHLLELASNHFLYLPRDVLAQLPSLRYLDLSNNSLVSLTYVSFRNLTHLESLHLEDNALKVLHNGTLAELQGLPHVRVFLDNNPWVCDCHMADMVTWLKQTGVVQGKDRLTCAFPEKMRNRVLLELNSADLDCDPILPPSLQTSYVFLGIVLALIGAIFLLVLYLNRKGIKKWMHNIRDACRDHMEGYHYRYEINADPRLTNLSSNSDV
Description: (§1) Binding studies were performed by standard flow cytometry-based staining procedures two cell lines expressing 5T4:CHO-K1 cells (obtained from Alligator) transduced with human or cynomolgus macaque 5T4 and SKOV-3 human ovarian adenocarcinoma cells which express (human) 5T4. All labeling and washes were performed in U-bottom 96-well plates in saline buffer with 0.1% BSA and 2 mM EDTA. Cell were plated at approximately 100,000 cells per well and incubated with a range of 100 nM to 0.05 nM concentrations of test molecules in […], for 30 minutes on ice. Cells were washed three times then incubated for another 30 min on ice with fluorescently-labeled secondary polyclonal antibody, F(ab′)² goat anti-human IgG (Jackson ImmunoResearch Laboratories). The cells were then washed twice and the samples acquired in a BD LSRII or a Symphony A3 flow cytometer. The sample files were analyzed using FlowJo software; the mean fluorescence intensity (MFI-mean) or median fluorescence intensity (MFI-median) of the live population of cells in each well was calculated after gating on live cells (forward vs side scatter). Nonlinear regression analysis to determine EC₅₀ values was performed in GraphPad Prism 6® graphing and statistics software.

human 5T4 on cells [1] = biological target: T2, human 5T4 on cells (human, UniProt Q13641 32-420); test: flow cytometry, CHO-K1 cells expressing human 5T4, labelled anti-human IgG secondary, MFI (mean)
T2 construct: also called TPBG; hu5T4
T2 sequence: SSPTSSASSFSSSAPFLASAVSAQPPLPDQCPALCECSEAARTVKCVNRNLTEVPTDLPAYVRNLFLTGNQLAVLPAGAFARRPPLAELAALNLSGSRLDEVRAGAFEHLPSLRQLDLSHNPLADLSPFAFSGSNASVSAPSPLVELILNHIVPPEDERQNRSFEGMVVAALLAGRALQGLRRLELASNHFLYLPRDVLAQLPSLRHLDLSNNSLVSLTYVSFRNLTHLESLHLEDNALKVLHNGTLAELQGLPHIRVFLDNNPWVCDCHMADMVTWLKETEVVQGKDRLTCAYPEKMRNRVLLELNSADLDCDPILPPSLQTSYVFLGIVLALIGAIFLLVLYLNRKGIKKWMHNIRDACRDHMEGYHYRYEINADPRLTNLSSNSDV
Description: as §1

human 5T4 on cells [2] = biological target: T2, human 5T4 on cells; test: flow cytometry, H1975 cells, PE goat anti-human Fc
Description: A 3-fold titration of ALG.APV-210 construct (ranging from 100 nM to 0.14 nM) was incubated with the human 5T4-expressing cell lines for 40 minutes in FACS buffer at 4° C., washed 3 times, and detected with PE-labeled, goat-anti-human Fc secondary antibody (Jackson ImmunoResearch). Binding of ALG.APV-210 was detected by flow cytometry. All samples were run in duplicates. Nonlinear regression analysis to determine EC₅₀ values was performed in GraphPad Prism 6® graphing and statistics software.

[3] = biological target: T3, cynomolgus CD137 on cells (cynomolgus macaque, UniProt A9YYE7 24-254); test: flow cytometry, normalized percentage of CD8 T cells (gated from CD3-stimulated cynomolgus PBMC) bound by the biotinylated antibody, pooled data of 2 exp, n=6 donors
T3 construct: whole, on cells; also called CHO-K1/cynomolgus CD137 cell line; cynomolgus monkey CD137 on CD3-stimulated primary CD8 T cells
T3 sequence (A9YYE7 entry or part of it): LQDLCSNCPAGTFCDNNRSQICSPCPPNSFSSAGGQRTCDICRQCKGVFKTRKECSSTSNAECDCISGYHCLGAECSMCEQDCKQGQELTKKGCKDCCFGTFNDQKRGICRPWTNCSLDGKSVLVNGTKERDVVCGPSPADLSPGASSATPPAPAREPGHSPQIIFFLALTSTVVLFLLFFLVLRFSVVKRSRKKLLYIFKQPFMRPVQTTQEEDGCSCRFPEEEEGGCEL
Description: (§2) Following 48 h of incubation with or without CD3, human and cynomolgus PBMC were harvested, pooled, recounted and diluted in FACS buffer (PBS+0.5% BSA, 0.05% NaN₃) to a concentration of 5×10⁶ cells/mL. 50 μL (0.25×10⁶ cells) of cell solution was added to a 96-well FACS staining plate (Falcon #351190). Following 10 min of Fc-blocking in RT using Beriglobin (hIgG, 200 μg/mL), cells were washed in FACS buffer and then incubated for 1 h in 4° C. with 100 μL of the biotinylated ALG.APV-210 or negative control. The antibodies were added in a serial dilution starting either at 5 μg/mL titrating down in a 12 step ⅓ dilution down to […] (exp 1) or 1 μg/mL titrating down in a 12 step ½ dilution down to 0.0005 μg/mL (exp 2). […] Cells were analysed for ALG.APV-210 binding using flow cytometry by gating on viable, single cells expressing CD3 and CD8. MFI values (FMO subtracted) from 2 independent experiments as well as normalized pooled data from 2 experiments and EC₅₀-values were determined and plotted using GraphPad Prism 7, non-linear regression log (agonist) vs. normalized response—variable slope, n=6 donors/group.

human CD137 on cells = biological target: T4, human CD137 on cells (human, UniProt Q07011 24-255); test: flow cytometry, MFI of the CD137 positive cells; human CD8 T cells, MFI of CD137 positive cells
T4 construct: also called 4-1BB; TNFRSF9 (CHO-K1/human CD137 cells)
T4 sequence (Q07011 24-255 limits assumed): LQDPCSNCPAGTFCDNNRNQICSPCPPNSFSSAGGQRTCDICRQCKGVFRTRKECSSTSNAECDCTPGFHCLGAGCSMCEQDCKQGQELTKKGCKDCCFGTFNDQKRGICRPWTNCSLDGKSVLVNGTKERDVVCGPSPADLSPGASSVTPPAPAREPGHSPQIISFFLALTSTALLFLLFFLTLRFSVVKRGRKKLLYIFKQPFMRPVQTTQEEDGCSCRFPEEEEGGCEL
Description: as §2

B1: ALG.APV-187 (bispecific antibody)
chain: EVQLLESGGGLVQPGGSLRLSCAASGFTFSHGSMYWVRQAPGKGLEWVSSISSGSGSTYYADSVKGRFTISHDNSKNTLYLQMNSLRAEDTAVYYCARSSYYGSYYSIDYWGQGTLVTVSSGGGGSGGGGSGGGGSGGGGSDIQMTQSPSSLSASVGDRVTITCRASQSISSYLNWYQQKPGKAPKLLIYAASSLQSGVPSRFSGSGSGTDFTLTISSLQPEDFATYYCQQYYDNLPTFGQGTKLEIKSSEPKSSDKTHTCPPCPAPEAAGAPSVFLFPPKPKDTLMISRTPEVTCVVVDVSHEDPEVKFNWYVDGVEVHNAKTKPREEQYNSTYRVVSVLTVLHQDWLNGKEYKCAVSNKALPAPIEKTISKAKGQPREPQVYTLPPSRDELTKNQVSLTCLVKGFYPSDIAVEWESNGQPENNYKTTPPVLDSDGSFFLYSKLTVDKSRWQQGNVFSCSVMHEALHNHYTQKSLSLSPGSGGGGSGGGGSGGGGSPSEVQLLESGGGLVQPGGSLRLSCAASGFTFSSYAMSWVRQAPGKCLEWVSAISGSGGSTYYADSVKGRFTISRDNSKNTLYLQMNSLRAEDTAVYYCARYYGGYYSAWMDYWGQGTLVTVSSGGGGSGGGGSGGGGSGGGGSDIQMTQSPSSLSASVGDRVTITCRASQSISSFLNWYQQKPGKAPKLLIYAASSLQSGVPSRFSGSGSGTDFTLTISSLQPEDSATYYCQQTYGYLHTFGCGTKLEIKR
notes: Optimized ADAPTIR scFv-Fc-scFv homodimer with stabilizing disulfide in the 1210 scFv
Cynomolgus 5T4 on cells
  EC50: 21 nM
  Maximum MFI: 25400
Human 5T4 on cells [1]
  EC50: 5.6 nM
  Maximum MFI: 13500

B2: ALG.APV-210 (bispecific antibody)
chain: EVQLLESGGGLVQPGGSLRLSCAASGFTFSHGSMYWVRQAPGKGLEWVSSISSGSGSTYYADSVKGRFTISHDNSKNTLYLQMNSLRAEDTAVYYCARSSYYGSYYSIDYWGQGTLVTVSSGGGGSGGGGSGGGGSGGGGSDIQMTQSPSSLSASVGDRVTITCRASQSISSYLNWYQQKPGKAPKLLIYAASSLQSGVPSRFSGSGSGTDFTLTISSLQPEDFATYYCQQYYDNLPTFGQGTKLEIKEPKSSDKTHTCPPCPAPEAAGAPSVFLFPPKPKDTLMISRTPEVTCVVVDVSHEDPEVKFNWYVDGVEVHNAKTKPREEQYNSTYRVVSVLTVLHQDWLNGKEYKCAVSNKALPAPIEKTISKAKGQPREPQVYTLPPSRDELTKNQVSLTCLVKGFYPSDIAVEWESNGQPENNYKTTPPVLDSDGSFFLYSKLTVDKSRWQQGNVFSCSVMHEALHNHYTQKSLSLSPGSGGGGSGGGGSGGGGSPSEVQLLESGGGLVQPGGSLRLSCAASGFTFSSYAMSWVRQAPGKCLEWVSAISGSGGSTYYADSVKGRFTISRDNSKNTLYLQMNSLRAEDTAVYYCARYYGGYYSAWMDYWGQGTLVTVSSGGGGSGGGGSGGGGSGGGGSDIQMTQSPSSLSASVGDRVTITCRASQSISSFLNWYQQKPGKAPKLLIYAASSLQSGVPSRFSGSGSGTDFTLTISSLQPEDSATYYCQQTYGYLHTFGCGTKLEIKR
notes: Optimized ADAPTIR scFv-Fc-scFv homodimer with stabilizing disulfide in the 1210 scFv; also called 5T4-CD137 bispecific antibody
Human 5T4 on cells [2]
  EC50: 20 nM

B3: biotinylated ALG.APV-210 (bispecific antibody)
chain: B2 chain
notes: also called ALG.APV-210 (biotinylated for FACS detection)
[3]
  EC50: 0.019 nM
Human CD137 on cells
  EC50: 0.17 nM
